Test results taken from patent US20190100602A1 (INSERM INSTITUT NATIONAL DE LA SANT ET DE LA RECHERCHE M …, published 2019).
Where two headings read alike, the source gives them in different places.

B1: KB-AT-003 (VHH)
VHH: QVQLVQSGGGLVQPGGSLRLSCAASALTFSSRAWAWYRQAPGKQRELVASITGGGTTNYADSVKGRFTISRDNAKNTVYLQMNSLKPEDTAVHYCNGYRYTYAWGQGTQVTVSS
notes: Monovalent anti-antithrombin single-domain antibody; also called sdAb KB-AT-003
B2: KB-AT-001/002 (bispecific antibody)
chain: QVQLQESGGGLVQAGGSLRLSCAASGRTFRNYVMGWFRQAPGKDPEFIAGINRSGAITYYGDSVKGRFTISRDNAKNTVSLQMNSLEPEDTAVYYCAAGETTWSIRRDDYDYWGQGTQVTVSSGGGSGGGSGGGSGGGSQVQLVQSGGGLVQAGGSLRLSCAASGRTFNNNGMGWFRQAPGKEREFVAAISWSGGSTYYADSVKGRYIMSRDNAKNTVYLQMNSLKPEDTAVYYCAARTRYNSGLFSRNYDYWGQGTQVTVSS
B3: KB-AT-001/003 (bispecific antibody)
chain: QVQLQESGGGLVQAGGSLRLSCAASGRTFRNYVMGWFRQAPGKDPEFIAGINRSGAITYYGDSVKGRFTISRDNAKNTVSLQMNSLEPEDTAVYYCAAGETTWSIRRDDYDYWGQGTQVTVSSGGGSGGGSGGGSGGGSQVQLQESGGGLVQPGGSLRLSCAASALTFSSRAWAWYRQAPGKQRELVASITGGGTTNYADSVKGRFTISRDNAKNTVYLQMNSLKPEDTAVHYCNGYRYTYAWGQGTQVTQVTVSS
B4: KB-AT-001/005 (other)
chain: QVQLQESGGGLVQAGGSLRLSCAASGRTFRNYVMGWFRQAPGKDPEFIAGINRSGAITYYGDSVKGRFTISRDNAKNTVSLQMNSLEPEDTAVYYCAAGETTWSIRRDDYDYWGQGTQVTVSSGGGSGGGSGGGSGGGSEVQLVESGGGLVQPGGSLRLSCEASGRDFNDAALGWSRQVPGKARETVAMITSGGVRNYAETVKDRFTISRDNAKNTVYLDMNNLQPDDTGVYYCKADSFKGDYDTSWYLYWGQGTQVTVSS
B5: KB-AT-002/003 (bispecific antibody)
chain: QVQLQESGGGLVQAGGSLRLSCAASGRTFNNNGMGWFRQAPGKEREFVAAISWSGGSTYYADSVKGRYIMSRDNAKNTVYLQMNSLKPEDTAVYYCAARTRYNSGLFSRNYDYWGQGTQVTVSSGGGSGGGSGGGSGGGSQVQLQESGGGLVQPGGSLRLSCAASALTFSSRAWAWYRQAPGKQRELVASITGGGTTNYADSVKGRFTISRDNAKNTVYLQMNSLKPEDTAVHYCNGYRYTYAWGQGTQVTVSS
B6: KB-AT-112 (bispecific antibody)
chain: QVQLQESGGGLVQAGGSLRLSCAASGRTFRNYVMGWFRQAPGKDPEFIAGINRSGAITYYGDSVKGRFTISRDNAKNTVSLQMNSLEPEDTAVYYCAAGETTWSIRRDDYDYWGQGTQVTVSSGGGSGGGSGGGSGGGSQVQLQESGGGLVQAGGSLRLSCAASGRTFRNYVMGWFRQAPGKDPEFIAGINRSGAITYYGDSVKGRFTISRDNAKNTVSLQMNSLEPEDTAVYYCAAGETTWSIRRDDYDYWGQGTQVTVSSGGGSGGGSGGGSGGGSQVQLVQSGGGLVQAGGSLRLSCAASGRTFNNNGMGWFRQAPGKEREFVAAISWSGGSTYYADSVKGRYIMSRDNAKNTVYLQMNSLKPEDTAVYYCAARTRYNSGLFSRNYDYWGQGTQVTVSS
B7: KB-AT-113 (bispecific antibody)
chain: QVQLQESGGGLVQAGGSLRLSCAASGRTFRNYVMGWFRQAPGKDPEFIAGINRSGAITYYGDSVKGRFTISRDNAKNTVSLQMNSLEPEDTAVYYCAAGETTWSIRRDDYDYWGQGTQVTVSSGGGSGGGSGGGSGGGSQVQLQESGGGLVQAGGSLRLSCAASGRTFRNYVMGWFRQAPGKDPEFIAGINRSGAITYYGDSVKGRFTISRDNAKNTVSLQMNSLEPEDTAVYYCAAGETTWSIRRDDYDYWGQGTQVTVSSGGGSGGGSGGGSGGGSQVQLQESGGGLVQPGGSLRLSCAASALTFSSRAWAWYRQAPGKQRELVASITGGGTTNYADSVKGRFTISRDNAKNTVYLQMNSLKPEDTAVHYCNGYRYTYAWGQGTQVTQVTVSS
B8: KB-AT-115 (other)
chain: QVQLQESGGGLVQAGGSLRLSCAASGRTFRNYVMGWFRQAPGKDPEFIAGINRSGAITYYGDSVKGRFTISRDNAKNTVSLQMNSLEPEDTAVYYCAAGETTWSIRRDDYDYWGQGTQVTVSSGGGSGGGSGGGSGGGSQVQLQESGGGLVQAGGSLRLSCAASGRTFRNYVMGWFRQAPGKDPEFIAGINRSGAITYYGDSVKGRFTISRDNAKNTVSLQMNSLEPEDTAVYYCAAGETTWSIRRDDYDYWGQGTQVTVSSGGGSGGGSGGGSGGGSEVQLVESGGGLVQPGGSLRLSCEASGRDFNDAALGWSRQVPGKARETVAMITSGGVRNYAETVKDRFTISRDNAKNTVYLDMNNLQPDDTGVYYCKADSFKGDYDTSWYLYWGQGTQVTVSS
B9: KB-AT-1123 (bispecific antibody)
chain: QVQLQESGGGLVQAGGSLRLSCAASGRTFRNYVMGWFRQAPGKDPEFIAGINRSGAITYYGDSVKGRFTISRDNAKNTVSLQMNSLEPEDTAVYYCAAGETTWSIRRDDYDYWGQGTQVTVSSGGGSGGGSGGGSGGGSQVQLQESGGGLVQAGGSLRLSCAASGRTFRNYVMGWFRQAPGKDPEFIAGINRSGAITYYGDSVKGRFTISRDNAKNTVSLQMNSLEPEDTAVYYCAAGETTWSIRRDDYDYWGQGTQVTVSSGGGSGGGSGGGSGGGSQVQLVQSGGGLVQAGGSLRLSCAASGRTFNNNGMGWFRQAPGKEREFVAAISWSGGSTYYADSVKGRYIMSRDNAKNTVYLQMNSLKPEDTAVYYCAARTRYNSGLFSRNYDYWGQGTQVTVSSGGGSGGGSGGGSGGGSQVQLQESGGGLVQPGGSLRLSCAASALTFSSRAWAWYRQAPGKQRELVASITGGGTTNYADSVKGRFTISRDNAKNTVYLQMNSLKPEDTAVHYCNGYRYTYAWGQGTQVTQVTVSS

Assays:
human antithrombin [1] = molecular target: T1, human antithrombin (human, UniProt P01008 33-464); experiment: cell-based or functional assay
simian antithrombin = molecular target: T2, simian antithrombin (simian); experiment: ELISA, sdAb coated, plasma 1/4, bound antithrombin probed with polyclonal anti-antithrombin; grade by OD
T2 construct: Native protein in plasma diluted 1/4; also called simian AT; antithrombin in simian plasma
Protocol: (§1) sdAbs KB-AT-001, -002. -003, -004, -005, -006, and -007 were immobilized (10 microgram/ml) in 10 mM NaHCO₃, 50 mM Na2CO3 (pH 9.5) in a volume of 50 microliter in half-well microtiter plates (Greiner Bio-One, Les Ulis, France) for 16 h at 4° C. As a positive control, polyclonal anti-antithrombin antibodies (MATIII-EIA kit, Affinity biologicals, Ancaster Canada) were immobilized in a similar fashion. As a negative control, the anti-von Willebrand sdAb KB-VWF-006 was immobilized. After washing the wells three times with 100 microliter/well using Tris-buffered saline (pH 7.6) supplemented with 0.1% Tween-20 (TBS-T), wells were blocked with 100 microliter/well of TBS-T supplemented with 3% bovine serum albumin (BSA) for 30 min at 37° C. Wells were washed as described above, and subsequently the following plasma preparations (diluted ¼ in TBS-T/3% BSA, 100 microliter per well, 2 hours at 37° C.) were added to each of the immobilized sdAbs and both types of control wells: rabbit plasma, canine plasma, simian plasma, bovine plasma, porcine plasma, rat plasma, murine plasma and human plasma.
(§2) Wells were then washed three times with 100 microliter/well using TBS-T. Bound antithrombin was probed with peroxidase-labeled polyclonal anti-antithrombin antibodies (MATIII-EIA kit, Affinity biologicals, Ancaster Canada; diluted 1/100) for 2 hours at 37° C. with 50 microliter per well. Wells were then washed three times with 100 microliter/well using TBS-T. Residual peroxidase activity was detected by measuring peroxidase-mediated hydrolysis of 3,3′,5,5′-tetramethylbenzidine.
(§3) Negative binding (−) was defined as optical density (OD) being ≤0.1, moderate positive binding (+) was defined as OD being >0.1 and <0.5, strongly positive binding (++) was defined as OD being ≥0.5. […] All plasma preparations had moderate or strongly positive binding to the positive control (polyclonal anti-antithrombin antibodies).

rat antithrombin = molecular target: T3, rat antithrombin (rat, UniProt Q8VHJ4); experiment: as above
T3 construct: Native protein in plasma diluted 1/4; also called rat AT; antithrombin in rat plasma
Protocol: as §1, §2, §3

human antithrombin [2] = molecular target: T1, human antithrombin; experiment: as above
Protocol: as §1, §2, §3

canine antithrombin = molecular target: T4, canine antithrombin (canine); experiment: as above
T4 construct: Native protein in plasma diluted 1/4; also called canine AT; antithrombin in canine plasma
Protocol: as §1, §2, §3

murine antithrombin = molecular target: T5, murine antithrombin (mouse, UniProt P32261 33-465); experiment: as above
T5 construct: also called mouse antithrombin; murine AT
Protocol: as §1, §2, §3

porcine antithrombin = molecular target: T6, porcine antithrombin (porcine); experiment: ELISA, sdAb coated, plasma 1/4, bound antithrombin probed with polyclonal anti-antithrombin
T6 construct: Native protein in plasma diluted 1/4; also called porcine AT; antithrombin in porcine plasma
Protocol: as §1, §2, §3

bovine antithrombin = molecular target: T7, bovine antithrombin (bovine, UniProt P41361 33-465); experiment: as above
T7 construct: Native protein in plasma diluted 1/4; also called bovine AT; antithrombin in bovine plasma
Protocol: as §1, §2, §3

rabbit antithrombin = molecular target: T8, rabbit antithrombin (rabbit); experiment: as above
T8 construct: Native protein in plasma diluted 1/4; also called rabbit AT; antithrombin in rabbit plasma
Protocol: as §1, §2, §3

human antithrombin [3] = molecular target: T1, human antithrombin; experiment: BLI (Octet-QK), sdAb coupled to sensor, antithrombin 12.5-50 ug/ml; apparent KD
Protocol: The interaction between sdAbs KB-AT-001, KB-AT-002, KB-AT-003 and KB-AT-006 versus human antithrombin was further analyzed via biolayer-interferometry analysis using Octet-QK equipment in order to determine apparent dissociation constants (KD,app). To this end, sdAbs KB-AT-001, KB-AT-002, KB-AT-003 and KB-AT-006 were diluted in 0.1 M Mes (pH 5.0) to a concentration of 200 microgram/ml for coupling to EDC/NHS-activated amine-reactive biosensors (Fort6bio, Menlo Park, Calif., USA). Sensors were rehydrated in 0.2 ml 0.1 M MES, pH 5.0 for 300 sec. Sensors were then activated via incubation with 0.1 ml 0.2 M EDC/0.095 M NHS mixture for 300 sec and subsequently incubated with 0.1 ml sdAb-solution for 600 sec. […] Following this association phase, sensors were transferred to wells containing PBS-T and incubated for 900 sec, allowing dissociation of the antithrombin-sdAb complex. Obtained data were subsequently analyzed using Octet-QK data analysis software (Origin vs 4) to estimate KD,app.

human antithrombin [4] = molecular target: T1, human antithrombin; experiment: cell-based or functional assay; remark: listed apart in the source
human antithrombin [5] = molecular target: T1, human antithrombin; experiment: cell-based or functional assay; remark: listed apart in the source
human antithrombin [6] = molecular target: T1, human antithrombin; experiment: cell-based or functional assay; remark: listed apart in the source
human antithrombin [7] = molecular target: T1, human antithrombin; experiment: cell-based or functional assay; remark: listed apart in the source

T1 sequence (P01008 33-464 limits assumed): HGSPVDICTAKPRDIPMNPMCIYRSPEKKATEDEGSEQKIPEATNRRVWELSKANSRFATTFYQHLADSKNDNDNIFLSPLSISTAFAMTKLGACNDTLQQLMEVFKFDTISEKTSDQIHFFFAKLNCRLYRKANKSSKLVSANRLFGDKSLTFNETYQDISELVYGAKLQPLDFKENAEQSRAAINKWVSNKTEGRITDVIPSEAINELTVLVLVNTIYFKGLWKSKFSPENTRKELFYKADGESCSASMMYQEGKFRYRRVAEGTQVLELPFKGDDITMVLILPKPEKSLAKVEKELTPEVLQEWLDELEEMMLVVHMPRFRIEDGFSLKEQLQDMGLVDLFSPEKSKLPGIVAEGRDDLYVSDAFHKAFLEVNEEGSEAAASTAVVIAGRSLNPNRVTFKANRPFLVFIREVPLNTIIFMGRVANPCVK
T7 sequence (P41361 33-465): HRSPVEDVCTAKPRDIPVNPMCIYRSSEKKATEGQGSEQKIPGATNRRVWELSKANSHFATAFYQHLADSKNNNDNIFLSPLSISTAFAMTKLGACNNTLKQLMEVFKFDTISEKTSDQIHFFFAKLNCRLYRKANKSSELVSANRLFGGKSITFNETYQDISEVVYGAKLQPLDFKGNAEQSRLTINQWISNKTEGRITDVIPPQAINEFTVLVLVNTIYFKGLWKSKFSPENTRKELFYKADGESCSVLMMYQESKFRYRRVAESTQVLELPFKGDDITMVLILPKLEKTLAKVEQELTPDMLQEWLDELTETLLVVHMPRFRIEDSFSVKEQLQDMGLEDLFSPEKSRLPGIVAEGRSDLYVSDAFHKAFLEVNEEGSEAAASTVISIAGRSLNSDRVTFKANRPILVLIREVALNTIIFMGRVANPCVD
T5 sequence (P32261 33-465 limits assumed): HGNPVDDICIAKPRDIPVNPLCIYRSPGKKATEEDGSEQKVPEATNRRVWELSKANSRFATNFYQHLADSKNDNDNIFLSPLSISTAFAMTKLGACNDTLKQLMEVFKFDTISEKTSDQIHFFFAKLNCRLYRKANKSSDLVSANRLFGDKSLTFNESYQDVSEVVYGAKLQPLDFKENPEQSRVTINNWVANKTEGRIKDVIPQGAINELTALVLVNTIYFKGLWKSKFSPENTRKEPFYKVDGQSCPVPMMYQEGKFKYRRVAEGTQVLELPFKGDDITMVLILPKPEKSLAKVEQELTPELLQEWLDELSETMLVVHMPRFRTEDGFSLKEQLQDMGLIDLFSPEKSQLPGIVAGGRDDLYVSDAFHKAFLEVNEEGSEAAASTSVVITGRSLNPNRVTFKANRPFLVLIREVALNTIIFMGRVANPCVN

Binder	% antithrombin neutralization (factor Xa amidolytic activity on S-2765, with LMW-heparin) (human antithrombin [5]) [%]	% antithrombin neutralization (thrombin amidolytic activity on S-2238, with unfractionated heparin) (human antithrombin [6]) [%]	% antithrombin neutralization (thrombin amidolytic activity on S-2238, with unfractionated heparin) (human antithrombin [7]) [%]	also measured
B1	–	–	–	% antithrombin neutralization (thrombin amidolytic activity on S-2238, no heparin) (human antithrombin [1]): 67%; OD (simian antithrombin): ≥ 0.5 od; OD (rat antithrombin): 0.1 to 0.5 od; OD (human antithrombin [2]): ≥ 0.5 od; OD (canine antithrombin): 0.1 to 0.5 od; OD (murine antithrombin): ≥ 0.5 od; OD (porcine antithrombin): ≤ 0.1 od; OD (bovine antithrombin): ≤ 0.1 od; OD (rabbit antithrombin): ≤ 0.1 od; Kd (human antithrombin [3]): 0.4 nM; percentage of neutralization of antithrombin-mediated factor Xa inhibition, with LMW-heparin (human antithrombin [4]): < 15%; percentage of neutralization of antithrombin-mediated thrombin inhibition, with unfractionated heparin (human antithrombin [4]): < 5%
B2	57	30	–	–
B3	62	56	–	–
B4	34	28	–	–
B5	68	47	–	–
B6	–	–	29	–
B7	–	–	97	–
B8	–	–	26	–
B9	–	–	99	–
